From publication PMC5332438

Experiments:
Assay in all cases: co-IP
[1] = biological target: human mitochondrial adenine nucleotide translocator, C-terminal c-Myc-DDK tag (human) (UniProt P12235)
[2] = biological target: human translocase of outer mitochondrial membrane 22 homolog, C-terminal c-Myc and DDK tags (human) (UniProt Q9NS69)
[3] = biological target: human BKCa alpha-subunit starting from Met3, untagged (human)
[4] = biological target: Full length human BKCa alpha-subunit starting from Met1, 3xHA-tagged, with DEC splice insert (human)
Chain of Full length human BKCa alpha-subunit starting from Met1, 3xHA-tagged, with DEC splice insert (human) (Q12791 whole entry, canonical isoform): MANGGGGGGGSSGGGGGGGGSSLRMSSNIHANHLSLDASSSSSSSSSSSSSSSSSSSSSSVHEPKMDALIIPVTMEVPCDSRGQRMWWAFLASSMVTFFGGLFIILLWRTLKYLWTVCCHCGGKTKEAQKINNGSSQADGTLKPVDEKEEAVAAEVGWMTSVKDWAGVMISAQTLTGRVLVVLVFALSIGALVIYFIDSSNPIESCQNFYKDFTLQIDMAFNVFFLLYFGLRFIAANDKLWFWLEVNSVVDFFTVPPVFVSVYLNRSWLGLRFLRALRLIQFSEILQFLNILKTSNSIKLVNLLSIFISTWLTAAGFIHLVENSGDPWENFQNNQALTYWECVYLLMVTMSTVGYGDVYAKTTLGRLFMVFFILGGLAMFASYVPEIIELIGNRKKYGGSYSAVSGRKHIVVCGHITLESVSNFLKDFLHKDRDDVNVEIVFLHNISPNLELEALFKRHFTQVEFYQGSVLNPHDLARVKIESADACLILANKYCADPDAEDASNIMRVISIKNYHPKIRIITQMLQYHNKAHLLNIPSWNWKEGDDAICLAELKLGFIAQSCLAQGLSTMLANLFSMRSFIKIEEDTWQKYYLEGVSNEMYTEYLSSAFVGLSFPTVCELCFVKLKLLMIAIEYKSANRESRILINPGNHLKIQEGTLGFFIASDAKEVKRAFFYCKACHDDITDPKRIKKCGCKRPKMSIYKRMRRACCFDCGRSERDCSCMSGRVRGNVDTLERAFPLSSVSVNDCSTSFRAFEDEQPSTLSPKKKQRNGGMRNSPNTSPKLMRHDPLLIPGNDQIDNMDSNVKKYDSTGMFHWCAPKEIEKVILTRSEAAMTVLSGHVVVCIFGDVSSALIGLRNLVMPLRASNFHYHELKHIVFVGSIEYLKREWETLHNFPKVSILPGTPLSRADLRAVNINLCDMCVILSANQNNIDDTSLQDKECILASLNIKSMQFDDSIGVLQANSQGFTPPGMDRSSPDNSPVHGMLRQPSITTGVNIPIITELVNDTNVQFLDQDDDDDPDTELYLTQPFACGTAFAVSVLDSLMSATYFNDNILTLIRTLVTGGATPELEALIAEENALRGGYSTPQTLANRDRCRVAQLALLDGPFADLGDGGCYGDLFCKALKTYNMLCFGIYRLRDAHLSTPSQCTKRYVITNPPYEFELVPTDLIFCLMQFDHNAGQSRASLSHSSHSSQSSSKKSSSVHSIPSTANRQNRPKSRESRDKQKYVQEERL

[5] = biological target: Full length human BKCa alpha-subunit starting from Met1, 3xHA-tagged, without DEC (human)
Chain of Full length human BKCa alpha-subunit starting from Met1, 3xHA-tagged, without DEC (human) (Q12791 whole entry): as the sequence (Q12791 whole entry, canonical isoform) above

Chain of human BKCa alpha-subunit starting from Met3, untagged (human) (Q12791 whole entry, canonical isoform): as above

Row | Molecule | Co-IP efficiency (compared to wild-type BKCa) [1] | Co-IP efficiency (wild-type BKCa = 1) [2] | other results
1 | human mitochondrial adenine nucleotide translocator, C-terminal c-Myc-DDK tag (natural protein) MGDHAWSFLKDFLAGGVAAAVSKTAVAPIERVKLLLQVQHASKQISAEKQYKGIIDCVVRIPKEQGFLSFWRGNLANVIRYFPTQALNFAFKDKYKQLFLGGVDRHKQFWRYFAGNLASGGAAGATSLCFVYPLDFARTRLAADVGKGAAQREFHGLGDCIIKIFKSDGLRGLYQGFNVSVQGIIIYRAAYFGVYDTAKGMLPDPKNVHIFVSWMIAQSVTAVAGLVSYPFDTVRRRMMMQSGRKGADIMYTGTVDCWRKIAKDEGAKAFFKGAWSNVLRGMGGAFVLVLYDEIKKYV |  |  | Co-IP efficiency (BKCa-DEC = 1) [3]: 0.69
2 | human translocase of outer mitochondrial membrane 22 homolog, C-terminal c-Myc and DDK tags (natural protein) MAAAVAAAGAGEPQSPDELLPKGDAEKPEEELEEDDDEELDETLSERLWGLTEMFPERVRSAAGATFDLSLFVAQKMYRFSRAALWIGTTSFMILVLPVVFETEKLQMEQQQQLQQRQILLGPNTGLSGGMPGALPSLPGKI |  |  | Co-IP efficiency [4]: 0.91; Co-IP efficiency [5]: 0.89

Continued, in another order:

Row | Co-IP efficiency (compared to wild-type BKCa) [1] | Co-IP efficiency (wild-type BKCa = 1) [2] | Molecule | other results
3 | 0.91 |  | c-Myc-BKCa 1-711 (domain or fragment) | 
4 | 0.17 | 0.33 | c-Myc-BKCa 322-1113 (domain or fragment) | 
5 | 0.33 | 0.42 | c-Myc-BKCa 679-1113 (domain or fragment) | 
